Source: patent US20200308591A1, “PROMOTER REGION ANALYSIS METHODS AND CELLS FOR PRACTICING SAME” (Eurofins DiscoverX Corporation, priority 2019, published 2020)
Where two headings read alike, the source gives them in different places. Values belong to the compound of their own block, whether it stands above or below them.

Columns and labels:
[1] = target: CD40 receptor, endogenous in U2OS NFκB EFC reporter cells (UniProt P25942); assay: cell-based or functional assay
[2] = test system: NFAT signaling pathways; assay: U2OS NFAT EFC reporter assay, PMA/ionomycin stimulation; assay type: cell-based; settings: 5,000 cells, stimulated 20h, components given together as cocktail, read-out: potency of the cocktail expressed as component concentration
Method: NFAT EFC Reporter construct includes a promoter with 4 tandemly repeated (4×) NFAT transcription factor binding response elements, each having the sequence: […] (SEQ ID NO:5).
Cells were stimulated for 20h followed by detection by PathHunter® FLASH detection reagent (+Enzyme Acceptor (EA)) with cell lysis for 1h. 5K and 10K refers to the number of cells plated in each well of a 384 well plate. S/B is signal (top) over background (bottom) of the assay response curve.
A “cell stimulation” cocktail of phorbol 12-myristate 13-acetate (PMA) and ionomycin is known to activate “NFAT signaling pathways” and the NFAT transcription factor. […] Inhibition could be detected as decreases in relative light units (RLUs) with test compounds in the presence of stimulating doses of cell stimulation cocktail or other activating ligands.

[3] = test system: IL2 promoter; assay: Jurkat IL2-promoter EFC reporter assay; assay type: cell-based; settings: 5K cells, stimulated 16h; ionomycin via NFAT, PMA via AP-1 response elements
From the text: FIG. 9. Plasmid map for IL2-Promoter-EFC Reporter Plasmid. In this reporter construct, the complete endogenous IL2 gene promoter (“IL2prom”), which contains multiple specific transcription factor binding sites is fused upstream of and drives expression of carrier protein-ePL which is fused to a carrier protein. Contained within the IL2 promoter are binding sites for NFAT (1), NFkB (2), OCT (3), ARRE-2 (4) and NFAT/API (6) transcription factors and the IL2 minimal promoter (7). The DNA sequence of the IL2 promoter used is gtac[…]gctag (SEQ ID NO: 11) and is comprised of 8 different transcription factor binding sites and an IL-2 core promoter as described by Weaver et. al. (Molecular Immunology, 6 Mar. 2007, 44(11):2813-2819). The following 8 DNA elements […] (SEQ ID NO: 12), […] (SEQ ID NO:13), […] (SEQ ID NO:14), […] (SEQ ID NO:15), […] (SEQ ID NO:16), […] […]
FIG. 10. […] 5K Jurkat IL2 promoter reporter cells were plated in wells of 384 well plate and stimulated for 16h with either […] (squares) or […]+CD28 antibody (circles) at 37′C prior to adding FLASH detection reagent (+5×EA) with cell lysis (and reading EFC luminescence). […]
FIG. 11. […] 5K cells were plated in wells of 384 well plate and stimulated for 16h prior to adding FLASH detection reagent (+5×EA) with cell lysis (and reading luminescence). S/B is calculated by taking the RLU (with PMA/ionomycin)/RLU (without PMA/ionomycin).

[4] = target: human T-cell receptor CD3 subunit on Jurkat cells (human) (UniProt P07766); assay: cell-based or functional assay
[5] = target: T1, IL-6 receptor (Homo sapiens, UniProt P08887); assay: HepG2 STAT3 pathway reporter cell line (Example 9); assay type: cell-based; settings: 5000 cells/well; 16 h at 37 °C
T1 construct: uses endogenous IL-6 receptor in HepG2 cells to detect IL-6 signaling; endogenous in cells; host or cells: HepG2
T1 sequence (P08887 20-468): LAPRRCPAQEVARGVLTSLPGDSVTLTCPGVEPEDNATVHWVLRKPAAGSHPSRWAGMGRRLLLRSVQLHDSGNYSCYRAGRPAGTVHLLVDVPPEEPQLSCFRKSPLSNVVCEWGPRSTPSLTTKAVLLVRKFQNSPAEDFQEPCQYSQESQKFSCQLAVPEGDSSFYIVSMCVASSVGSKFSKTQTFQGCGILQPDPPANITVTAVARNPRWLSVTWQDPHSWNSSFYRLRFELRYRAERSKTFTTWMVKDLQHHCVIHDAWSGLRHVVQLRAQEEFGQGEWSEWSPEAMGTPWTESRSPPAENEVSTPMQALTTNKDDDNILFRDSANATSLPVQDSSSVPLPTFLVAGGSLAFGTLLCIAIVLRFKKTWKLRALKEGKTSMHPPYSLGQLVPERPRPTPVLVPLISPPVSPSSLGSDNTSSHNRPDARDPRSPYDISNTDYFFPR
T1 sequence (P40189 23-918 partner): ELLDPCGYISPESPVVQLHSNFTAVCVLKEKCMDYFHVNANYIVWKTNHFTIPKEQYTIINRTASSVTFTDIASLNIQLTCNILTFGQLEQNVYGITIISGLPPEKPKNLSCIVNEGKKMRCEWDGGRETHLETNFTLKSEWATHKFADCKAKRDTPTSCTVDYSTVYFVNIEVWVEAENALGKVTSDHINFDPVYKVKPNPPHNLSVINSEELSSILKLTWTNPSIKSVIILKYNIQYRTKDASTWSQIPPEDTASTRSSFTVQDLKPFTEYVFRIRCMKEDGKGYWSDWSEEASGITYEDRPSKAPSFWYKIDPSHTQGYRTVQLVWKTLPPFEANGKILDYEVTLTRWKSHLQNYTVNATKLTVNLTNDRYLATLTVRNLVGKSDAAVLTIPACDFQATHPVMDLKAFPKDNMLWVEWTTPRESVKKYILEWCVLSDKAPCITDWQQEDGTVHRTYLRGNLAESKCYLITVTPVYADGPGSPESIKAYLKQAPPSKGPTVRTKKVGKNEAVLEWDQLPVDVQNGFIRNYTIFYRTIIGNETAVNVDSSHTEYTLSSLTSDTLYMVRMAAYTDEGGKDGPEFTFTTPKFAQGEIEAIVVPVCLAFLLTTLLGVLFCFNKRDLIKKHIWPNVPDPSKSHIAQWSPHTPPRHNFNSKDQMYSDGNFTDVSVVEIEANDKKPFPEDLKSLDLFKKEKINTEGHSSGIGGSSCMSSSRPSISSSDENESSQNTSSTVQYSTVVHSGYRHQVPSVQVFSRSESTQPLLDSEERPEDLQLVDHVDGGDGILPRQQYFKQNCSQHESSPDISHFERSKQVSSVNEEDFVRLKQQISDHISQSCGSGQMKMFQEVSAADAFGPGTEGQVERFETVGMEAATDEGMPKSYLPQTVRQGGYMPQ
From the text: A reporter cell line was engineered to express an Enzyme Donor (ED) tagged carrier protein controlled by a pathway-inducible transcriptional response element. Pathway activation results in induced expressions of the ED-tagged protein. Addition of exogenous Enzyme Acceptor (EA), and buffer, lyses the cell and forces complementation of the ED and EA enzyme fragments.
In this example, the cell line is a STAT3 (signal transducer and activator of transcription 3) pathway reporter cell line. The cells are HepG2 cells that include a nucleic acid encoding a β-galactosidase donor fragment (ED) having the amino acid sequence […] (SEQ ID NO:30) operably coupled to a promoter region comprising a STAT3 response element.
Cells were plated in a 96-well plate and incubated at 37° C. and 5% CO2 to allow the cells to attach and grow. Cells were then stimulated with a control agonist (here, IL-6), using the assay conditions described below. Following stimulation, signal was detected using the PathHunter® ProLabel®/ProLink™ Detection Kit (Eurofins DiscoverX Corporation) according to the recommended protocol.
Cell line for HepG2 STAT3 assay uses endogenous IL-6 receptor in HepG2 cells to detect IL-6 signaling.

[6] = target: TNFα (Homo sapiens, UniProt P01375); assay: U2OS NFkB EFC reporter assay, inhibition of TNFα-stimulated NF-κB signaling; assay type: cell-based
Method: FIG. 5. Screening of inhibitors using U2OS NFkB EFC reporter cell-based assay. U2OS NFkB EFC reporter cells were treated with 2 nM TNFα (agonist) with or without various concentrations (and 3 lots) of anti-TNFα inhibitor adalimumab. In this example, the 3 lots of Humira tested were all derived from lot #1047318 run through a forced degradation protocol to simulate decreased specific activity or loss of activity where samples were non-stressed (e.g. the control), stressed 70° C. for 15 min and stressed 70° C. for 30 min.
U2OS NF-κB EFC Reporter cells can also be used to measure inhibition and study inhibitors of NF-κB signaling. […] The dose-dependence of this inhibitory response allowed measurement of the potency of different lots of adalimumab. […] Note that forced degradation is a method used in development of assay for biologics (protein therapeutics) to simulate lots with different potency, e.g. for QC/lot release assays, or loss of potency from various causes. […] The stability of Humira® over time can also be studied using this assay. It can be seen that two lots of Humira® stored at 4° C.
FIG. 6. […] The stability of expired lot #1017235 was also equivalent to that of lot #1047318 in the forced degradation experiment shown in FIG. 5.

[7] = target: endogenous IL-6 receptor in HepG2 cells (UniProt P08887); assay: cell-based or functional assay

CD40 receptor, endogenous in U2OS NFκB EFC reporter cells, sequence (P25942 21-277 limits assumed): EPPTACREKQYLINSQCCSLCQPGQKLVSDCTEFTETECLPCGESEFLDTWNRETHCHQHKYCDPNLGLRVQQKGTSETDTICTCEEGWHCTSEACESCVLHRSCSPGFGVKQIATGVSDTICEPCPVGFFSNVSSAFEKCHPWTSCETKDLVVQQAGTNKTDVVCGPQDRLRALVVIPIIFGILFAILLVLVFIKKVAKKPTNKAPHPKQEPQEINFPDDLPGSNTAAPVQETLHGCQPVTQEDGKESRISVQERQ
CD40 ligand (CD40L), sequence (P29965 113-261 limits assumed): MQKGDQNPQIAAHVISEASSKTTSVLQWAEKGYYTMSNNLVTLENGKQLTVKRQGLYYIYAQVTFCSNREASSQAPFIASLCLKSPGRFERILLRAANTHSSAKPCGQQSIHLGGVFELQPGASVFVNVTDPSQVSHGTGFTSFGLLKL
TNFα, sequence (P01375 77-233 limits assumed): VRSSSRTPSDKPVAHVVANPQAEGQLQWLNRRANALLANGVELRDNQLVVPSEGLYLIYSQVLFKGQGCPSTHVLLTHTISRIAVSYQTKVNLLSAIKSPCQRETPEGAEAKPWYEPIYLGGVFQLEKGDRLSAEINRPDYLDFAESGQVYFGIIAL
IL-6, sequence (P05231 30-212 limits assumed): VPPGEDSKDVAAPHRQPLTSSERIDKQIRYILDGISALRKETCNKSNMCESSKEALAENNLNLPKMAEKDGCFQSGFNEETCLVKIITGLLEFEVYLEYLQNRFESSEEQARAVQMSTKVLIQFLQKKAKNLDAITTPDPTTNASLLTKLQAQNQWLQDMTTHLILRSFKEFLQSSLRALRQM

- EC50 for control agonist stimulation, U2OS NF-κB pathway reporter cell line (Example 12) [1]: 0.0886 µg/mL
- EC50 for control agonist stimulation, U2OS NFκB pathway reporter cell line (Example 7) [1]: 0.225 µg/mL
- signal:background ratio at agonist EMAX, U2OS NFκB pathway reporter cell line (Example 7) [1]: 26.3
- signal:background ratio, U2OS NF-κB pathway reporter cell line (Example 12) [1]: 103
Compound: CD40 ligand (CD40L) (from UniProt P29965 113-261)

Compound: CCCCCCCCCCCCCC(=O)O[C@@H]1[C@@H](C)[C@@]2(O)[C@@H](C=C(CO)C[C@]3(O)C(=O)C(C)=C[C@@H]23)[C@@H]2C(C)(C)[C@]12OC(C)=O [PMA, phorbol 12-myristate 13-acetate]
- EC50 [2]: 3.8 nM
- activation of elements in the IL2-promoter EFC reporter construct [3]: increase the activation

- EC50 of stimulating OKT3 cells, Jurkat NFAT EFC reporter co-culture assay [4]: 700 cells
Compound: OKT3 ligand expressed and presented on the surface of CHO-K1 cells (scFv)

- EC50 for control agonist stimulation [5]: 0.000601 µg/mL
- signal:background ratio at agonist EMAX [5]: 21.3
Compound: IL-6: control agonist signalling through endogenous IL-6 receptor in HepG2 cells

- EC50 for control agonist stimulation, Jurkat NFAT pathway reporter cell line (Example 8, plate-coated antibody) [4]: 0.302 µg/mL
- signal:background ratio at agonist EMAX, Jurkat NFAT pathway reporter cell line (Example 8) [4]: 7.6
Compound: anti-CD3 antibody [OKT3]

- inhibition of TNFα-stimulated NF-κB signaling ([6]; 2 nM TNFα (agonist)): can inhibit
- change of inhibitory potency after forced degradation ([6]; samples subjected to forced degradation for 0, 15 or 30 min at 70° C.): graded loss of potency (right shift)
Compound: adalimumab

- EC50 for control agonist stimulation, HepG2 STAT3 pathway reporter cell line [7]: 0.000601 µg/mL
- signal:background ratio at agonist EMAX, HepG2 STAT3 pathway reporter cell line [7]: 21.3
Compound: IL-6 (from UniProt P05231 30-212) (ligand)

Compound: C[C@H](CCC(=O)O)C[C@H](C)C[C@H](C)C(=O)/C=C(\O)[C@H](C)C[C@H](C)C/C=C/[C@@H](C)[C@@H](O)[C@@H](C)[C@@H](O)C[C@@H]1CC[C@@](C)([C@H]2CC[C@@](C)([C@@H](C)O)O2)O1 [ionomycin]
- EC50 ([2]; Homo sapiens, U2OS): 63 nM
- activation of elements in the IL2-promoter EFC reporter construct [3]: increase the activation
